Data on 4 molecules can be found in article PMC466950 (Science Advances, 2024).

Data set [1] concerns the target porcine E2 of native PDHc (Sus scrofa domesticus (endogenous in porcine liver)). The experiment in a line: gel densitometry of the purified complex.
Data set [2] concerns the target human E2 subunit within hCore (human) (UniProt P10515). The experiment in a line: gel densitometry of the purified complex.
The data set “cryo-EM structure” concerns the molecule itself. The experiment in a line: cryo-EM structure.

“porcine E3BP of native PDHc (natural protein)” returned an E3BP chains per 60-subunit core (E3BP molecules per 60-subunit assembly) in data set [1] of 13.

As to “human E3BP subunit within hCore (from UniProt O00330 54-501) (natural protein)”, in data set [2], the E3BP chains per 60-subunit core (E3BP molecules per 60-subunit assembly) amounted to 13.

B1: human E2 homo-60-mer (enzyme)
chain: SLPPHQKVPLPSLSPTMQAGTIARWEKKEGDKINEGDLIAEVETDKATVGFESLEECYMAKILVAEGTRDVPIGAIICITVGKPEDIEAFKNYTLDSSAAPTPQAAPAPTPAATASPPTPSAQAPGSSYPPHMQVLLPALSPTMTMGTVQRWEKKVGEKLSEGDLLAEIETDKATIGFEVQEEGYLAKILVPEGTRDVPLGTPLCIIVEKEADISAFADYRPTEVTDLKPQVPPPTPPPVAAVPPTPQPLAPTPSAPCPATPAGPKGRVFVSPLAKKLAVEKGIDLTQVKGTGPDGRITKKDIDSFVPSKVAPAPAAVVPPTGPGMAPVPTGVFTDIPISNIRRVIAQRLMQSKQTIPHYYLSIDVNMGEVLLVRKELNKILEGRSKISVNDFIIKASALACLKVPEANSSWMDTVIRQNHVVDVSVAVSTPAGLITPIVFNAHIKGVETIANDVVSLATKAREGKLQPHEFQGGTFTISNLGMFGIKNFSAIINPPQACILAIGASEDKLVPADNEKGFDVASMMSVTLSCDHRVVDGAVGAQWLAEFRKYLEKPITMLL
Broadly, the stoichiometry N is the number of molecules, sites or subunits per partner or assembly. In the case of B1, the “stoichiometry N” value in the data set “cryo-EM structure” came out at 60 subunits.

B2: human E2 subunit within hCore (enzyme)
chain: SLPPHQKVPLPSLSPTMQAGTIARWEKKEGDKINEGDLIAEVETDKATVGFESLEECYMAKILVAEGTRDVPIGAIICITVGKPEDIEAFKNYTLDSSAAPTPQAAPAPTPAATASPPTPSAQAPGSSYPPHMQVLLPALSPTMTMGTVQRWEKKVGEKLSEGDLLAEIETDKATIGFEVQEEGYLAKILVPEGTRDVPLGTPLCIIVEKEADISAFADYRPTEVTDLKPQVPPPTPPPVAAVPPTPQPLAPTPSAPCPATPAGPKGRVFVSPLAKKLAVEKGIDLTQVKGTGPDGRITKKDIDSFVPSKVAPAPAAVVPPTGPGMAPVPTGVFTDIPISNIRRVIAQRLMQSKQTIPHYYLSIDVNMGEVLLVRKELNKILEGRSKISVNDFIIKASALACLKVPEANSSWMDTVIRQNHVVDVSVAVSTPAGLITPIVFNAHIKGVETIANDVVSLATKAREGKLQPHEFQGGTFTISNLGMFGIKNFSAIINPPQACILAIGASEDKLVPADNEKGFDVASMMSVTLSCDHRVVDGAVGAQWLAEFRKYLEKPITMLL
modifications: one lipoamide in each of the two lipoyl domains (fully lipoylated by ESI-MS); N-terminal methionine present
For the molecule B2, in the data set “cryo-EM structure”, the binding result is “binds”.
